According to article PMC8064498:

Columns and labels:
[1] = target: SARS-CoV-2 S ectodomain (residues 1-1214) with prefusion stabilizing 986P, 987P variants, C-terminal (SARS-CoV-2) (UniProt P0DTC2); assay: SEC
[2] = target: SARS-CoV-2 prefusion-stabilized spike protein ectodomain (aa 16-1208), expressed in Drosophila S2 cells (SARS-CoV-2) (UniProt P0DTC2); assay: SEC

| Substance | stoichiometry N [1] | stoichiometry N [2] |
| --- | --- | --- |
| SARS-CoV-2 S ectodomain (residues 1-1214) with prefusion stabilizing 986P, 987P variants, C-terminal (from UniProt P0DTC2 14-1214) (domain or fragment) | 3 |  |
| SARS-CoV-2 prefusion-stabilized spike protein ectodomain (aa 16-1208), expressed in Drosophila S2 cells (from UniProt P0DTC2 16-1208) (domain or fragment) |  | 2 |
